The results in this text go back to patent US20160280766A1 (UNIVERSITY OF MARYLAND BALTIMORE, published 2016).

For experiment [1], the target named is T1, FcγRIIB (human, UniProt P31994 43-217, limits assumed).
T1 construct: also called CD32; not shown: His-tag fused to the C-terminus
T1 sequence (looked up): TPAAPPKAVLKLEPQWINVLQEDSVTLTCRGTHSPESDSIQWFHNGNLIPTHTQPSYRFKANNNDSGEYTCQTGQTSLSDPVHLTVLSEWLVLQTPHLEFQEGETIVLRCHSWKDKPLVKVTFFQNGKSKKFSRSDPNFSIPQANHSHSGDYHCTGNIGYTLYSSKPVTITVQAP
Nature of the experiment: ratio of SPR KDs, reference Fc-WT.

Experiment [2] concerns the target T2, FcγRIIIA having a Val residue at polymorphic site 158 (human, UniProt P08637 17-208).
T2 construct: also called FcγRIIIA-158V; CD16a; not shown: His-tag fused to the C-terminus
Nature of the experiment: ratio of SPR KDs, reference Fc-WT.

Experiment [3] has as its target T3, FcγRIIIA having a Phe residue at polymorphic site 158 (human, UniProt P08637 17-208, limits assumed).
T3 construct: also called FcγRIIIA-158F; CD16a; not shown: His-tag fused to the C-terminus
As to the kind of experiment: ratio of SPR KDs, reference Fc-WT.

In experiment [4] the target is T4, FcγRIIA (human, UniProt P12318 34-217, limits assumed).
T4 construct: also called CD32; not shown: His-tag fused to the C-terminus
T4 sequence (looked up): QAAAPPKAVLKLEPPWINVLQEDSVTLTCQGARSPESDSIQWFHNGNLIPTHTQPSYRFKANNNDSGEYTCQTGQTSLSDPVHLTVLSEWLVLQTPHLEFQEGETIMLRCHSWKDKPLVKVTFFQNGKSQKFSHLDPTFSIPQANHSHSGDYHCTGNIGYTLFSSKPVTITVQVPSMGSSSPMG
As to the kind of experiment: ratio of SPR KDs, reference Fc-WT.

Experiment [5] concerns the target T1, FcγRIIB. As to the kind of experiment: SPR, Fc captured on Protein A, receptor injected; steady-state analysis. In general terms: SPR reads the build-up and loss of mass on a sensor chip optically.
The target of experiment [6] is T3, FcγRIIIA having a Phe residue at …. The description is as above.
The target in experiment [7] is T4, FcγRIIA. Described as above.
In experiment [8] the target is T2, FcγRIIIA having a Val residue at …. Nature of the experiment: SPR, Fc captured on Protein A, receptor injected; 1:1 Langmuir kinetic fit. The protocol:
All experiments were performed using a Biacore T100 instrument (GE Healthcare). Protein A (Sigma-Aldrich) (0.1 mg/mL, 10 mM sodium acetate, pH 4.5) was immobilized at a density of 1000 response units (RU) in flow cells 1 and 2 of a CM5 sensor chip via standard amine-coupling procedure according to the manufacturer's instructions (GE Healthcare), using HBS-X buffer (10 mM HEPES, 150 mM NaCl, 0.05% Tween 20) as the running buffer and a flow rate of […]. Flow cell 1 was used as negative control, while flow cell 2 was used to capture wild type or hyper-glycosylated Fc variants in PBS at a density of 100-150 RU. […] Between experiments, the sensor chip surface was regenerated by 2 injections of 15 μL each of 20 mM HCl. Experimental data were corrected for instrument and bulk artifacts by referencing to a control sensor chip surface using Biacore T100 evaluation software 2.0.3 (GE Healthcare). Kinetic parameters of binding were determined using the same software and a 1:1 Langmuir binding model for all FcγRIIIA-158V interactions.

T3 sequence (P08637 17-208 limits assumed): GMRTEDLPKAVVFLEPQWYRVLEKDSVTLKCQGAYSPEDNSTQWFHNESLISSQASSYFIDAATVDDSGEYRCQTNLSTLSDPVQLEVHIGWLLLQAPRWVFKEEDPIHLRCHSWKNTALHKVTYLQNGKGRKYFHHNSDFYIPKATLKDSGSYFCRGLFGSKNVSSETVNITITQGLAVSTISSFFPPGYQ
T2 sequence (P08637 17-208 F176V): as the sequence (P08637 17-208 limits assumed) above, with F160V counted along it

B1: Fc-226^hg/290^hg/E333A/K334A (other)
chain: EPKSCDKTHTNSTCPAPELLGGPSVFLFPPKPKDTLMISRTPEVTCVVVDVSHEDPEVKFNWYVDGVEVHNAKTNSTEEQYNSTYRVVSVLTVLHQDWLNGKEYKCKVSNKALPAPIAATISKAKGQPREPQVYTLPPSREEMTKNQVSLTCLVKGFYPSDIAVEWESNGQPENNYKTTPPVLDSDGSFFLYSKLTVDKSRWQQGNVFSCSVMHEALHNHYTQKSLSLSPGK
modifications: N-linked glycans at Asn297 and at engineered Asn226 and Asn290 (IgG1 heavy chain positions)
The term Kd denotes a measure of binding affinity in units of concentration. Higher therefore signals weaker binding. Consider B1, for which the “fold decrease in binding (Fc-variant KD/Fc-WT KD)” value (from here on “fold decrease in binding”) was determined as 12.2 fold with FcγRIIB [1], 17.8 fold in experiment [2], 11.8 fold in experiment [3] and 11.2 fold with FcγRIIA [4]. For the same molecule, the Kd is 20800 nM with FcγRIIB [5], 151 nM in experiment [6], 13400 nM in the experiment with FcγRIIA [7] and 57 nM in experiment [8].

B2: IgG1 Fc variant Fc-226^hg/290^hg/S298A/E333A/K334A (other)
chain: EPKSCDKTHTNSTCPAPELLGGPSVFLFPPKPKDTLMISRTPEVTCVVVDVSHEDPEVKFNWYVDGVEVHNAKTNSTEEQYNATYRVVSVLTVLHQDWLNGKEYKCKVSNKALPAPIAATISKAKGQPREPQVYTLPPSREEMTKNQVSLTCLVKGFYPSDIAVEWESNGQPENNYKTTPPVLDSDGSFFLYSKLTVDKSRWQQGNVFSCSVMHEALHNHYTQKSLSLSPGK
modifications: N-linked glycans at Asn297 and at engineered Asn226 and Asn290 (IgG1 heavy chain positions)
Consider B2, for which the “fold decrease in binding” value with FcγRIIB [1] worked out at 37.8 fold; in experiment [2], 4.8 fold; in experiment [3] it was 3.9 fold; with FcγRIIA [4] it was 10.7 fold. Further, the Kd is 64200 nM with FcγRIIB [5], 50.1 nM in experiment [6], 12800 nM with FcγRIIA [7] and 15.5 nM in experiment [8].

B3: IgG1 Fc variant Fc-226^hg/290^hg (other)
chain: EPKSCDKTHTNSTCPAPELLGGPSVFLFPPKPKDTLMISRTPEVTCVVVDVSHEDPEVKFNWYVDGVEVHNAKTNSTEEQYNSTYRVVSVLTVLHQDWLNGKEYKCKVSNKALPAPIEKTISKAKGQPREPQVYTLPPSREEMTKNQVSLTCLVKGFYPSDIAVEWESNGQPENNYKTTPPVLDSDGSFFLYSKLTVDKSRWQQGNVFSCSVMHEALHNHYTQKSLSLSPGK
modifications: N-linked glycans at Asn297 and at engineered Asn226 and Asn290 (IgG1 heavy chain positions)
notes: Both CPP (226-228) and KPR (290-292) replaced by NST
On to B3, for which the “fold decrease in binding” value with FcγRIIB [1] was 30.1 fold; in experiment [2] it was 8.6 fold; in experiment [3] it was 12.4 fold; in the experiment with FcγRIIA [4] it was 7.6 fold. In addition, the dissociation constant (Kd) with FcγRIIB [5] came to 51200 nM; in experiment [6], 160 nM; with FcγRIIA [7], 9100 nM; in experiment [8] it was 27.5 nM.

B4: Fc-S298A/E333A/K334A (other)
chain: EPKSCDKTHTCPPCPAPELLGGPSVFLFPPKPKDTLMISRTPEVTCVVVDVSHEDPEVKFNWYVDGVEVHNAKTKPREEQYNATYRVVSVLTVLHQDWLNGKEYKCKVSNKALPAPIAATISKAKGQPREPQVYTLPPSREEMTKNQVSLTCLVKGFYPSDIAVEWESNGQPENNYKTTPPVLDSDGSFFLYSKLTVDKSRWQQGNVFSCSVMHEALHNHYTQKSLSLSPGK
modifications: N-linked glycan at Asn297
Regarding B4, the figures for the Kd (in the experiment with FcγRIIB [5]; in experiment [8]) were 7100 nM and 2.1 nM, respectively.

B5: IgG1 Fc variant Fc-290^hg (other)
chain: EPKSCDKTHTCPPCPAPELLGGPSVFLFPPKPKDTLMISRTPEVTCVVVDVSHEDPEVKFNWYVDGVEVHNAKTNSTEEQYNSTYRVVSVLTVLHQDWLNGKEYKCKVSNKALPAPIEKTISKAKGQPREPQVYTLPPSREEMTKNQVSLTCLVKGFYPSDIAVEWESNGQPENNYKTTPPVLDSDGSFFLYSKLTVDKSRWQQGNVFSCSVMHEALHNHYTQKSLSLSPGK
modifications: N-linked glycans at Asn297 and at engineered Asn290 (IgG1 heavy chain positions)
notes: KPR at 290-292 replaced by NST
On to B5, for which the Kd with FcγRIIB [5] is 18800 nM; in experiment [6] it was 66.1 nM; in experiment [8], 20.8 nM.

B6: IgG1 Fc variant Fc-226^hg/290^hg/S298A (other)
chain: EPKSCDKTHTNSTCPAPELLGGPSVFLFPPKPKDTLMISRTPEVTCVVVDVSHEDPEVKFNWYVDGVEVHNAKTNSTEEQYNATYRVVSVLTVLHQDWLNGKEYKCKVSNKALPAPIEKTISKAKGQPREPQVYTLPPSREEMTKNQVSLTCLVKGFYPSDIAVEWESNGQPENNYKTTPPVLDSDGSFFLYSKLTVDKSRWQQGNVFSCSVMHEALHNHYTQKSLSLSPGK
modifications: N-linked glycans at Asn297 and at engineered Asn226 and Asn290 (IgG1 heavy chain positions)
Regarding B6, the “fold decrease in binding” value in the experiment with FcγRIIB [1] came out at 60.9 fold; in experiment [2], 6.3 fold; in experiment [3] it was 6.9 fold; in the experiment with FcγRIIA [4], 10.7 fold. Also, the Kd with FcγRIIB [5] turned out to be 104000 nM; in experiment [6], 87.8 nM; with FcγRIIA [7] it was 12800 nM; in experiment [8], 20.2 nM.
